# Test results reported in FireProtDB (doi:10.1006/jmbi.2001.4521).
# B1: Growth factor receptor-bound protein 2 wild type, Q08012 (protein)
# chain: MEAIAKHDFSATADDELSFRKTQILKILNMEDDSNWYRAELDGKEGLIPSNYIEMKNHDWYYGRITRADAEKLLSNKHEGAFLIRISESSPGDFSLSVKCPDGVQHFKVLRDAQSKFFLWVVKFNSLNELVEYHRTASVSRSQDVKLRDMIPEEMLVQALYDFVPQESGELDFRRGDVITVTDRSDENWWNGEIGNRKGIFPATYVTPYHS
# Details: Drosophila melanogaster, pH 6, Thermal, CD, phosphate 50 mM, Na2SO4 0.4 M, whole UniProt chain shown
protein,measurement,setting,value
B1,unfolding free energy,25 °C,1.8 kcal/mol
same,Tm,,63.7 °C
